The text below walks through data of IntAct's records for PubMed 25170080.

The labels stand for the following.
B1: Protein Nef (Human immunodeficiency virus type 1 group M subtype B (isolate HXB2) (HIV-1)), P04601 (parent)
chain: MGGKWSKSSVIGWPTVRERMRRAEPAADRVGAASRDLEKHGAITSSNTAATNAACAWLEAQEEEEVGFPVTPQVPLRPMTYKAAVDLSHFLKEKGGLEGLIHSQRRQDILDLWIYHTQGYFPDWQNYTPGPGVRYPLTFGWCYKLVPVEPDKIEEANKGENTSLLHPVSLHGMDDPEREVLEWRFDSRLAFHHVARELHPEYFKNC
partner: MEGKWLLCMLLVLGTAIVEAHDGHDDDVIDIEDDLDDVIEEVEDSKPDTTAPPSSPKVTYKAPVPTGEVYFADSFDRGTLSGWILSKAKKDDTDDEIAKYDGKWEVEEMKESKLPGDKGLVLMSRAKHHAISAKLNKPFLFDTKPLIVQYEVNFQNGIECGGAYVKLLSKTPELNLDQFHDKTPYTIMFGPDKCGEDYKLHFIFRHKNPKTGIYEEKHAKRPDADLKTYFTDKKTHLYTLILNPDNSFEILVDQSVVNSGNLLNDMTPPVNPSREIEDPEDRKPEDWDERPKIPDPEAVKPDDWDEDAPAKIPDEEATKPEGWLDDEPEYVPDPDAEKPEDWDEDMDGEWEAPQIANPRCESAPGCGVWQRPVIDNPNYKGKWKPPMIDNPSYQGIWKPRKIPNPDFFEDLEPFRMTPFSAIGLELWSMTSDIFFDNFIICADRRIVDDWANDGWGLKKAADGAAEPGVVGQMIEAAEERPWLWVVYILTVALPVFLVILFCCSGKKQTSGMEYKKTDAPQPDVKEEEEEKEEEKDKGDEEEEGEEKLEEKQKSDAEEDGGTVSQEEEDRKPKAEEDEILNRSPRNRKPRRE

In this assay the parent is B1. The conditions noted are these: with calx_human CANX.
As to G2A, the “effect of a mutation on the interaction” value is reported as “disrupting interaction strength”.
